Results taken from article PMC6816459 (Methods in molecular biology (Clifton, N.J.), 2019).

Biological target: the molecule itself

B1: C. elegans Vps4 (enzyme, UniProt Q9BL83 1-430, looked up)
chain: MSVPALQKAIELVTKATEEDTAGRYDQALRLYDQAIEYFLHAIKYESQGDKQRNAIRDKVGQYLNRAEQIKTHLKDGKTQKKPVKDGKDDSDEDEDKKKFQDKLSGAIVMEKPNVKWTDIAGLEGAKEALKEAVILPIKFPQLFTGNRKPWQGILLFGPPGTGKSYIAKAVATEAGESTFFSISSSDLMSKWLGESEKLVKNLFALAREHKPSIIFIDEIDSLCSARSDNESESARRIKTEFMVQMQGVGLNNDGILVLGATNIPWILDSAIRRRFEKRIYIPLPDIHARKEMFRIDVGKNYNTLTDQDFKVLAERCEGYSGYDISILVKDALMQPVRRVQSATHFKHVSGPSPKDPNVIAHDLLTPCSPGDPHAIAMNWLDVPGDKLANPPLSMQDISRSLASVKPTVNNTDLDRLEAFKNDFGQDGQE
Question: Which “stoichiometry N” value does the source give for B1 here?
Answer: Its value is 6.
